This passage reports stoichiometry N results from paper PMC6589562.

The test addresses spoke HSP40 (His-tagged recombinant HSP40) (Chlamydomonas reinhardtii). Briefly: AUC.

Turning to “spoke HSP40 (His-tagged recombinant HSP40) (natural protein)”, the stoichiometry N came to 2.
